Numbering of substitutions follows the chain as printed. One block for each binder: values may come before it.
Experiments:
human IL-1β [1] = molecular target: T1, human IL-1β (human, UniProt P01584 117-269); assay: BIAcore, antibody immobilized at low density, ligand flowed (refers to Example 9)
T1 construct: mature; also called mature human IL-1β; Interleukin-1β
Procedure: The binding affinity of the Mu007 antibody was determined using surface plasmon resonance (BIAcore™). In these experiments antibody was immobilized at low density on a BIAcore™ chip and ligand was flowed past. Build up of mass at the surface of the chip was measured. This analytical method allows the determination in real time of both on and off rates for binding. The Mu007 antibody has an affinity of approximately 6.0 picomolar (See Example 9). […] (See example 9). Hu007 comprises heavy and light chains that correspond to SEQ ID NO:17 and SEQ ID NO:13, respectively.
Affinities and specificities of both Hu007 and Mu007 were determined using BIAcore measurements. BIAcore™ is an automated biosensor system that measures molecular interactions. (Karlsson, et al. (1991) J. Immunol. Methods 145: 229-240). In these experiments antibody was immobilized at low density on a BIAcoreTm chip. Ethyl-dimethylaminopropyl-carbodiimide (EDC) was used to couple reactive amino groups to purified goat anti-human IgG or oat anti-rabbit IgG to a flow cell of a carboxy-methyl (CM5) BIAcore™ sensor chip. Goat IgG was diluted in sodium cetate buffer, pH 4.0, and immobilized on a flow cell of a M5 chip using EDC to yield 1000 response units. Unreacted sites were blocked with ehanolamine. A flow rate of 60 μl/min was used. […]

human IL-1β [2] = molecular target: T1, human IL-1β; assay: cell-based or functional assay
human IL-1α = molecular target: T2, human IL-1α (human, UniProt P01583 113-271); assay: BIAcore (refers to Example 9)
T2 sequence (looked up): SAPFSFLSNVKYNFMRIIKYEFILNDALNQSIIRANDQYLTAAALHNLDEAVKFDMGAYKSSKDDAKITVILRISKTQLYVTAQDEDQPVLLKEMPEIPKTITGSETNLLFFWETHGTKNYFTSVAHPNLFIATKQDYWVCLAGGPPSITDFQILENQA
Procedure: Affinities and specificities of both Hu007 and Mu007 were determined using BIAcore measurements. BIAcore™ is an automated biosensor system that measures molecular interactions. (Karlsson, et al. (1991) J. Immunol. Methods 145: 229-240). In these experiments antibody was immobilized at low density on a BIAcoreTm chip. Ethyl-dimethylaminopropyl-carbodiimide (EDC) was used to couple reactive amino groups to purified goat anti-human IgG or oat anti-rabbit IgG to a flow cell of a carboxy-methyl (CM5) BIAcore™ sensor chip. Goat IgG was diluted in sodium cetate buffer, pH 4.0, and immobilized on a flow cell of a M5 chip using EDC to yield 1000 response units. Unreacted sites were blocked with ehanolamine. A flow rate of 60 μl/min was used. Multiple binding/elution cycles were performed by injection a 100 μl solution of 15 μg/mL Mu007 or Hu007 followed by human IL-1β, mouse IL-1β, rat IL-1β, cynomolgus monkey IL-1β, porcine IL-1β, human IL-1 receptor antagonist, and human IL-1α at decreasing concentrations for each cycle (e.g. 1500, 750, 375, 188, 94, 47, 23.5, 12, and 0 picomolar). Elution was performed with glycine-HCl, pH 1.5. BIAevaluation™ was used to analyze the kinetic data. Table 2 depicts the affinities of Hu007 and Mu007 for human and cynomolgus IL1β. […] Cynomolgus and porcein IL-1β had 100% binding to Hu007 relative to human IL-1β.

human IL-1β [3] = molecular target: T1, human IL-1β; assay: cell-based or functional assay; remark: listed apart in the source
human IL-1β [4] = molecular target: T1, human IL-1β; assay: ELISA competition on coated human IL-1β, competitor biotinylated Mu007, Exp. A
Procedure: (§1) Wells of 96-well ELISA plates (Nunc-Immuno plate, Cat # 439454, NalgeNunc) were coated with 100 μμl of 0.5 μg/ml of human IL-1β in 0.2M sodium carbonate-bicarbonate buffer (pH 9.4) overnight at 4° C., washed with Wash Buffer, blocked with Superblock blocking buffer for 30 min at 37° C., and washed again with Wash Buffer. A mixture of biotinylated Mu007 (0.16 μg/ml final concentration) and competitor antibody (Mu007 or Hu007; starting at 100 μg/ml final concentration and serial 3-fold dilutions) in ELISA Buffer were added in triplicate in a final volume of 100 μl per well. As a no-competitor control, 100 μl of 0.16 μg/ml biotinylated Mu007 was used. As a background control, 100 μl of ELISA Buffer was used. ELISA plates were incubated at 37° C. for 2 hr. After washing the wells with Washing Buffer, 100 μl of 1 μg/ml HRP-conjugated streptavidin (Jackson ImmunoResearch) was added to each well. ELISA plates were incubated at room temperature for 30 min and washed with Washing Buffer. For color development, 100 μl/well of ABTS substrate was added. Color development was stopped by adding 100 μl/well of 2% oxalic acid. Absorbance was read at 415 nm.
(§2) Both Mu007 and Hu007 competed with biotinylated Mu007 in a concentration-dependent manner. […]

human IL-1β [5] = molecular target: T1, human IL-1β; assay: ELISA competition on coated human IL-1β, competitor biotinylated Mu007
Procedure: as §1, §2

human IL-1β [6] = molecular target: T1, human IL-1β; assay: ELISA competition on coated human IL-1β, competitor biotinylated Mu007, average
Procedure: as §1, §2

human IL-1β [7] = molecular target: T1, human IL-1β; assay: ELISA competition on coated human IL-1β, competitor biotinylated Mu007, Exp. C
Procedure: as §1, §2

human IL-1β [8] = molecular target: T1, human IL-1β; assay: ELISA competition on coated human IL-1β, competitor biotinylated Mu007, Exp. B
Procedure: as §1, §2

- Kd (human IL-1β [1]): ~0.006 nM
- inhibition of IL-1β stimulated proliferation of T1165.17 cells (3H-thymidine incorporation), average IC50 from three separate experiments (human IL-1β [2]): 0.22 nM
- binding result (human IL-1α): no binding
- IC50 (read off the curve) (human IL-1β [3]): ~0.2 nM
B1: mouse monoclonal antibody Mu007 (antibody, V domains shown)
VH: QVQLVQSGAEVKKPGASVKVSCKVSGYTFSRYWIEWVRQAPGKGLEWIGEILPGNGNINYNEKFKGKATITADTSTDTAYMELSSLRSEDTAVYYCSTIYYDYDQGFTYWGQGTLVTVSA
VL: DIKMTQSPSSMYASLGERVTITCKASQDIDRYLSWFQQKPGKSPKTLIYRVKRLVDGVPSRFSGSASGQDYSLTISSLQYEDMGIYYCLQYDEFPYTFGGGTKLEIK

- Kd (human IL-1β [1]): 0.01 to 0.02 nM
- Difference (IC50 of Hu007 against IC50 of Mu007) (human IL-1β [4]): 0.98 ratio
- inhibition of IL-1β stimulated proliferation of T1165.17 cells (3H-thymidine incorporation), average IC50 from three separate experiments (human IL-1β [2]): 0.48 nM
- neutralization of human IL-1β in the murine model of inflammatory stimulation, relative to Mu007 (human IL-1β [2]): ~0.33 fold of Mu007
- relative binding, fold less than that of Mu007 (human IL-1β [5]): 1.3 fold
- Difference (IC50 of Hu007 against IC50 of Mu007) (human IL-1β [6]): 0.89 ratio
- Difference (IC50 of Hu007 against IC50 of Mu007) (human IL-1β [7]): 0.82 ratio
- Difference (IC50 of Hu007 against IC50 of Mu007) (human IL-1β [8]): 0.88 ratio
- IC50 (read off the curve) (human IL-1β [3]): ~0.4 nM
B2: humanized antibody Hu007 (antibody, human IgG1, kappa, V domains shown)
VH: B1 VH with A120S
VL: DIQMTQSPSSLSASVGDRVTITCKASQDIDRYLSWFQQKPGKAPKSLIYRVKRLVDGVPSRFSGSASGTDYTLTISSLQPEDFATYYCLQYDEFPYTFGQGTKLEIKR
notes: the listing entries may be nucleotide entries with a translation; also called Hu007 IgG1 monoclonal antibody

Source: patent publication US20050075488A1 (published 2005)
